Measured values taken from patent US20250222105A1 (University of Texas, published 2025).

B1: anti-ROR1 monoclonal antibody A148 (antibody, V domains shown)
VH: DVQLQESGPGLVKPSQSLSLTCSVSGYSITSGYYWNWIRQFPGNKLEWMGYISNDGSNKYKPSLKNRISITRDTSKNQFFLKLNSVTTEDTATYYCARFPLINYDPWLAYWGQGTLVTVSA
VL: DVLMTQTPLSLPVSLGDQASISCRSSQNVVHRNGNTYLEWYLQKPGQSPKLLIYKVSNRFSGVPDRFSGSGSGTDFTLKISRVEAEDLGVYYCFQGSHVPWTFGGGTKLEIK
notes: Mouse monoclonal antibody from hybridoma
B2: anti-ROR1 monoclonal antibody A130 (antibody, V domains shown)
VH: DVQLQESGPGLVKPSQSLSLTCSVTGYSITSGYYWNWIRQFPGNKLEWMGYIRNDGSNNYNPSLKNRISITRDTSKNQFFLKLNSVTTEDTATYYCARFPLINYDPWFAYWGQGTLVTVSA
VL: ETTVTQSPASLSVATGEKVTIRCITSTDIDDDMNWYQQKPGEPPKLLISEANTLRPGVPSRFSSSGYGTDFVFTIENTLSEDVADYYCLQSYNMPLTFGAGTTLELK
notes: as for B1
B3: anti-ROR1 monoclonal antibody A142 (antibody, V domains shown)
VH: EVQLQQSGPDLVKPGASVKISCKASGYSFTGYYMHWVKQSHGKSLEWIGRVYPNNGGTSYNQKFKGKAILTVDKSSTTAYMELRSLTSEDSAVYYCALIHYYGFYSMDYWGQGTSVTVSS
VL: DVLMTQTPLSLPVSLGDQASISCRSSQSIVHSNGNTYLEWYLQKPGQSPKLLIYKVSNRFSGVPDRFSGSGSGTDFTLKISRVEAEDLGVYYCFQGSHVPWTFGGGTKLEIN
notes: as for B1
B4: anti-ROR1 monoclonal antibody A89 (antibody, V domains shown)
VH: DVQLQESGPGLVKPSQSLSLTCSVSGYSITSGYYWSWIRQFPGNKLEWMGYISNDGSNKYKPSLKNRISITRDTSKNQFFLKLKSVTTEDTATYYCARFPLINYDPWLAYWGQGTLVTVSA
VL: DVLMTQTPLSLPVSLGDQASISCRSSQSIVHSNGNTYLEWYLQKPGQSPKLLIYKVSNRFSGVPDRFSGSGSGTDFTLKISRVEAEDLGVYYCFQGSHVPWTFGGGTKLEIN
notes: Mouse monoclonal antibody from hybridoma (BALB/c mice immunized with ROR1-expressing L cells)
B5: anti-ROR1 monoclonal antibody A140 (antibody, V domains shown)
VH: DVQLQESGPGLVKPSQSLSLTCSVSGYSITSGYYWNWIRQFPGNKLEWMGYISNDGNNKYKPSLKNRISITRDTSKNQFFLKLNSVTAEDTATYYCARFPLINYDPWLAYWGQGTLVTVSA
VL: DVLMTQTPLSLPVSLGDQASISCRSSQSIVHSNGNTYLEWYLQKPGQSPKLLIYKVSNRFSGVPDRFSGSGSGTDFTLKISRVEAEDLGVYYCFQGSHVPWTFGGGTKLEIN
notes: as for B1
B6: anti-ROR1 monoclonal antibody A129 (antibody, V domains shown)
VH: DVQLQESGPGLVKPSQSLSLTCSVTGYSITSGYYWNWIRQFPGNKLEWMGYIRNDGSNNYNPSLKNRISITRDTSKNQFFLKLNSVTTEDTATYYCARFPLINYDPWFAYWGQGTLVTVSA
VL: DVLMTQAPLSLPVSLGDQASISCRSSQNVVHRNGNTYLEWYLQKPGQSPKLLIYKVSNRFSGVPDRFSGSGSGTDFTLKISRVEAEDLGVYYCFQGSHVPWTFGGGTKLEIK
notes: as for B1
B7: anti-ROR1 monoclonal antibody A97 (antibody, V domains shown)
VH: EVQLQQSGPELEKPGASVKISCKASGYSFIGYSMNWVRQSDGKSLEWIGNIDPYYGGTSYNLKFKGKATLTVDKSSSTAYMQLKSLTSEDSAVYYCARLGRGYFDYWGQGTTLTVSS
VL: DIVLTQSPATLSVTPGDSVSLSCRASQSITNNLHWYQQKSHESPRLLIKSASQSISGIPSRFSGSGSGTDFTLSINSVETEDFGMYFCQQSNSWPHTFGGGTKLEIK
notes: as for B1

molecular target: T1, human receptor tyrosine kinase like orphan receptor 1 (ROR1) expressed on cells (human, UniProt Q01973 30-937); assay: cell ELISA and flow cytometry on L cells transfected with human ROR1; also positive staining of ROR1+ lymphoma lines Jeko-1, SP-53, CA46
T1 construct: whole, on cells; also called human ROR1; ROR1-L cells

Binding result, binds:
B1, B2, B3, B4, B5, B6, B7
